Test results from US7090834B1, “Vascular endothelial cell growth factor variants and uses thereof” (Genentech, Inc., priority 1999, dated 2006).
Where a chain is given by its changes, count along the chain named. In names and notes the source's numbering stands.

What was measured:
[1] = biological target: T1, KDR receptor (soluble radio-immuno receptor-binding assay) (UniProt P35968 20-764, limits assumed); experiment: soluble radio-immuno receptor-binding assay (RIA)
T1 construct: the receptor construct is not described
Method: For example, quantitative binding measurements were carried out using a soluble radio-immuno receptor-binding assay (RIA), as described in Example 6 above.

[2] = biological target: T1, KDR receptor (soluble radio-immuno …); experiment: RIA (essentially as Muller et al. 1997)
[3] = biological target: T2, FLT-1 receptor (soluble radio-immuno receptor-binding assay) (UniProt P17948 27-758, limits assumed); experiment: RIA (essentially as Muller et al. 1997)
T2 construct: the receptor construct is not described

KDR receptor = KDR receptor (Homo sapiens, UniProt P35968); experiment: KDR receptor binding ELISA (inhibition of biotinylated native VEGF (8–109) binding); details: second figure of the cell, variant midpoint concentration divided by that of native VEGF
Method: (§1) Receptor binding assays were performed in 96-well immunoplates (Maxisorp, Nunc-Immunoplate, Nalge Nunc International, Rochester, N.Y.). Each well was coated with 100 μl of a solution containing 8 μg/ml of a monoclonal antibody to KDR known as MAKD5 (Genentech, South San Francisco, Calif.) in 50 mM carbonate buffer at pH 9.6 and incubated at 4° C. overnight. The supernatant was discarded, the wells were washed three times in washing buffer (0.05% Tween 20 in PBS), and the plate was blocked (150 μl per well) with block buffer (0.5% BSA, 0.01% thimerosal in PBS) at room temperature for one hour. The supernatant was discarded, and the wells were washed.
(§2) Aliquots of this mixture (100 μl) were added to the precoated microtiter wells and the plate was incubated for 1 hour at room temperature. […] The wells were then incubated with 3, 3′, 5,5′-tetramethyl benzidine (0.2 gram/liter; Kirkegaard & Perry Laboratories, Gaithersburg, Md.) for about 10 minutes at room temperature. Absorbance was read at 450 nm on a Vmax plate reader (Molecular Devices, Menlo Park, Calif.).
(§3) Titration curves were fit with a four-parameter nonlinear regression curve-fitting program (KaleidaGraph, Synergy Software, Reading, Pa.).

Flt-IgG = biological target: T3, Flt-IgG (UniProt P17948 27-758, limits assumed); experiment: competition ELISA vs biotinylated native VEGF for Flt-IgG
T3 construct: also called chimeric Flt-human Fc molecule; not shown: human IgG Fc
Method: Receptor binding assays were performed in 96-well immunoplates (Maxisorp, Nunc-Immunoplate, Nalge Nunc International, Rochester, N.Y.). Each well was coated with 100 μl of a solution containing 2 μg/ml of rabbit F(ab')2 to human IgG Fc (Jackson ImmunoResearch, West Grove, Pa.) in 50 mM carbonate buffer at pH 9.6 and incubated at 4° C. overnight. The supernatant was then discarded, the wells were washed three times in washing buffer (0.05% Tween 20 in PBS), and the plate was blocked (150 μl per well) with block buffer (0.5% BSA, 0.01% thimerosal in PBS) at room temperature for one hour. The supernatant was discarded, and the wells were washed.
The wells were filled with 100 μl of a solution containing Flt-IgG (a chimeric Flt-human Fc molecule) at 50 ng/ml in assay buffer (0.5% BSA, 0.05% Tween 20 in PBS). The wells were incubated at room temperature for 1 hour and then washed three times in wash buffer (0.05% Tween 20 in PBS).
as §2, with “the” for “this”, “2 hours” for “1 hour”, “3', 5,5'-tetramethyl” for “3′, 5,5′-tetramethyl”, “g/liter,” for “gram/liter;”

KDR (1-3) = biological target: T4, KDR (1-3) (UniProt P35968 20-327, limits assumed); experiment: competition ELISA vs biotinylated native VEGF (8-109) for KDR (1-3)
T4 construct: domain: domains 1 to 3; Genentech reagent; also called KDR (1-3) monomer; domains 1 to 3 of KDR
Method: as §1
as §2, with “3', 5,5'-tetramethyl” for “3′, 5,5′-tetramethyl”
as §3

Flt-1 receptor = experiment: RIA assay, binding to FLT-1 receptor; details: relative to native VEGF 165 = 1
Method: Various assays were conducted to examine the properties and biological activities of the I43A/I46A/Q79A/I83A Flt-sel variant. For example, quantitative binding measurements were carried out using a soluble radio-immuno receptor-binding assay (RIA), as described in Example 6 above.

[4] = biological target: gD-KDR receptor on CHO cells (UniProt P35968 20-1356); experiment: cell-based or functional assay
[5] = biological target: KDR receptor on HUVEC cells (human, UniProt P35968 20-1356); experiment: cell-based or functional assay
HUVEC cells = experiment: HUVEC migration, modified Boyden chamber assay; format: cell-based, human; details: 18 hour assay, FIG. 14A
Method: One of the central aspects of VEGF action on endothelial cells is its ability to act as a chemoattractant and stimulate the migration of endothelial cells. HUVEC cell migration was analyzed in a modified Boyden chamber assay as follows.
Falcon 8.0 micron filter inserts (Falcon 3097) were coated with type 1 collagen (VITROGEN, COHESION). HUVEC (obtained from Cell Systems, <passage 8) were grown in Cell Systems complete media (4ZO-500) with 10% FCS. Cells were trypsinized and transferred to EBM (Endothelial basal media, Clonetics) with 0.1% BSA for the assay. Cells were plated at 5×10^4 per upper chamber. […] The assay was routinely an 18 hour assay at 37° C. For the LY294002 inhibitor experiments, cells were allowed to adhere for 30 minutes prior to addition of the inhibitor. 20 minutes after inhibitor addition, VEGF was added to the bottom well and the assay was allowed to proceed for only 4 hours to avoid the occurrence of apoptosis associated with the treatment of these primary cells with LY294002 (purchased from Biomol).
Cells were removed from the upper side of the membrane by scraping with a polyurethane swab and then the remaining cells on the bottom side of the membrane were fixed with methanol. Cells were stained with Yo-Pro Iodide nuclear stain (Molecular Probes) and counted under low power fluorescence using an Image-Pro cell recognition program.

corneal angiogenesis = experiment: Corneal pocket angiogenesis assay; format: in vivo, Sprague-Dawley rats; details: rat, pellet with 200 ng growth factor, day 6, FIGS. 15A and 15B
Method: Assays were performed as described by Polyerini et al., Methods Enzymol., 198:440–450 (1991) with the following modifications. Sprague-Dawley rats were anesthetized using a gas (isoflurane)/injectable ketamine (80 mg/kg)/xylazine (15 mg/kg) combination. The eyes were gently proptosed and secured in place using nontraumatic forceps. With a #15 blade, a 1.5 mm incision was made slightly below the center of the cornea. Using a micro spatula (ST80017, ASSI), the incision was carefully blunt-dissected through the stroma toward the outer canthus of the eye. […] After surgery, the eyes were coated with gentamicin ointment. At day 6, the animals were injected with high molecular weight FITC-dextran and euthanized to allow for visualization of the vasculature. Corneal whole mounts were made of the enucleated eyes and measurements of the neovascular area completed using computer-assisted image analysis (Image-Pro Plus).

PLC-gamma in HUVEC cells = experiment: PLC-gamma tyrosine phosphorylation after immunoprecipitation; format: cell-based, human; details: 20 ng/ml, 5 minutes, FIG. 13A
Method: In order to determine which VEGF receptor(s) are involved in PLC-gamma activation in primary endothelial cells, HUVEC cells were treated with native VEGF or VEGF receptor-selective variants and PLC-gamma phosphorylation was assessed after immunoprecipitation.
Passage 4–7 HUVEC cells (Cell Systems, Kirkland, Wash.) were grown in Cell System's complete medium (AZ0-500) with 10% fetal calf serum and growth factors on gelatin-coated dishes and made quiescent by 14 hour starvation in 0.2% serum. […] The cells were then lysed in 0.5–1 ml RIPA buffer containing 0.1 mM sodium orthovanadate, 5 mM para-nitrophenylphosphate, 10 mM sodium fluoride, 0.5 micromolar okadaic acid and a protease inhibitor cocktail (Roche MB 1836145). PLC-gamma was then immunoprecipitated from whole cell lysates using monoclonal antibodies (Upstate Biotechnology) and analyzed for tyrosine phosphorylation (FIG. 13A) or lysates were immunoprecipitated with monoclonal antibodies against p85 PI 3′-kinase (purchased from Transduction Labs (P13020) and Neomarkers (MS424-P)) and tested for phosphotyrosine using phosphotyrosine antibodies PY20 or E120H (Transduction Labs) (FIG. 13B). Immunoprecipitation was conducted as follows. Protein A/G beads (Pierce) were blocked for nonspecific protein binding in 50 mM HEPES pH 7.2, 0.1% TX-100, 150 mM NaCl and 1 mg/ml ovalbumin for 30 minutes. Antibodies were precoupled in the same buffer for 1 hour at 4° C. with head over end rotation and beads were washed 3 times in lysis buffer. Beads were added to the lysates and rotated overnight. Beads were washed sequentially in 50 mM Tris pH 7.6, 150 mM NaCl, 1% TX-100, 1 mM CaCl2; 50 mM Tris pH 7.6, 500 mM NaCl, 0.1% TX-100, 1 mM CaCl2 and 50 mM Tris pH 7.6, 150 mM NaCl, 0.05% TX-100, 1 mM CaCl2. Beads were then resuspended in 2× sample buffer and boiled. Supernatants were applied directly to 4–12% Tris-Glycine gradient gels (Novex).

[6] = tested on: ERK1 and ERK2 in HUVEC cells; experiment: Activation of MAP kinases, ERK1/ERK2 phosphorylation Western blot; format: cell-based, human; details: 50 ng/ml or 10 ng/ml, 5 minutes, FIG. 12A
Method: Passage 4–7 HUVEC cells (Cell Systems, Kirkland, Wash.) were grown in Cell System's complete medium (AZ0-500) with 10% fetal calf serum and growth factors on gelatin-coated dishes and made quiescent by 14 hour starvation in 0.2% serum. […] The HUVEC cells were then lysed in 0.5–1 ml RIPA buffer containing 0.1 mM sodium orthovanadate, 5 mM para-nitrophenylphosphate, 10 mM sodium fluoride, 0.5 micromolar okadaic acid and a protease inhibitor cocktail (Roche MB 1836145). Western blot analysis was then conducted, probing for phosphorylated ERK1 or ERK2 using anti-phospho ERK antiserum (Promega).

T1 sequence (P35968 20-764 limits assumed): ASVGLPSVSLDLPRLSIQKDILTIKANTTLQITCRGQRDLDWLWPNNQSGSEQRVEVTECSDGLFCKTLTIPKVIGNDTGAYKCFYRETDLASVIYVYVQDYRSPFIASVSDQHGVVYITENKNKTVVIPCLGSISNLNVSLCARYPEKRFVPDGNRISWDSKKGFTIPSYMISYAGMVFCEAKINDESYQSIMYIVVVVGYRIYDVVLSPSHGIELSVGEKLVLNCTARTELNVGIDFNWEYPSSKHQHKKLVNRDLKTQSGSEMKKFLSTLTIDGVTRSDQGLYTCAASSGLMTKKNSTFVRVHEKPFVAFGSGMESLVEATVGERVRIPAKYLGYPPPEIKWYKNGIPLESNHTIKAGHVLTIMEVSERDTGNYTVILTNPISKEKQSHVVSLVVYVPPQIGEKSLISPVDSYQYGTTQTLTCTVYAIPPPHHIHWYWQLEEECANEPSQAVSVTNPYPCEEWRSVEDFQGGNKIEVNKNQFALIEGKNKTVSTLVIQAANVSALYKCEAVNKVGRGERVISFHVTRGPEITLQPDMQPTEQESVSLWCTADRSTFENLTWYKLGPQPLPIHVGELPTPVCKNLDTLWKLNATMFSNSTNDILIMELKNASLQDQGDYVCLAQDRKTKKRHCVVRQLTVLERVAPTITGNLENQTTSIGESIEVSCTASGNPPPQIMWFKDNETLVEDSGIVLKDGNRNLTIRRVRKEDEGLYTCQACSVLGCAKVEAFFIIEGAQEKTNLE
T4 sequence (P35968 20-327 limits assumed): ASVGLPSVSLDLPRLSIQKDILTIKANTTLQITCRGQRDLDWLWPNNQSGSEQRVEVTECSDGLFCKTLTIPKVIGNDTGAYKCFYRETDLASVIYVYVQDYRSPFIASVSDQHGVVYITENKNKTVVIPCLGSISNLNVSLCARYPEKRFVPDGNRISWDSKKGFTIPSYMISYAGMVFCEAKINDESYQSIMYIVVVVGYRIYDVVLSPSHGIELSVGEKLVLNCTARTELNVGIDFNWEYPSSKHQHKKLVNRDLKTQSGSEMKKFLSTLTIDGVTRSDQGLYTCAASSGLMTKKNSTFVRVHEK
Sequence of KDR receptor (P35968 20-327 limits assumed): as above
T2 sequence (P17948 27-758 limits assumed): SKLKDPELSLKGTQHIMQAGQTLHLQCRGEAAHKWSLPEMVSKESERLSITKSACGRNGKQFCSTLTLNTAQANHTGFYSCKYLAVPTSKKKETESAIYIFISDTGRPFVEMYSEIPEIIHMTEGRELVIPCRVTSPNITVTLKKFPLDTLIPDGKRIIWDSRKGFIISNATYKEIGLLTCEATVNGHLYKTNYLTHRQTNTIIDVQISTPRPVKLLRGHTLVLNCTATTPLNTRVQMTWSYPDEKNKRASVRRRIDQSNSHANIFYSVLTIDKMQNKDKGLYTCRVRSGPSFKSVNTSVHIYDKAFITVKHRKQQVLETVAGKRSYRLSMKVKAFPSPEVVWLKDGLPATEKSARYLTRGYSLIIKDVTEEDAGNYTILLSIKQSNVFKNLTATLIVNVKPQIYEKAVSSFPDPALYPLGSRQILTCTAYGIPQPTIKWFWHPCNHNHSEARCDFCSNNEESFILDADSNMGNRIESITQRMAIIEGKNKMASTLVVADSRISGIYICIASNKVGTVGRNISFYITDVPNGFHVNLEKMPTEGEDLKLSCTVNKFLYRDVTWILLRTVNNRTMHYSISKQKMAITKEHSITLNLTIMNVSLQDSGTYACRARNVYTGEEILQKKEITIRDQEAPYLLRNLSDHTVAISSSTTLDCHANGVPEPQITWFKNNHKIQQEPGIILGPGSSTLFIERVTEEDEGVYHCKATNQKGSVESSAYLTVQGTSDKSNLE
T3 sequence (P17948 27-758 limits assumed): as above
Sequence of Flt-1 receptor (P17948 27-331 limits assumed): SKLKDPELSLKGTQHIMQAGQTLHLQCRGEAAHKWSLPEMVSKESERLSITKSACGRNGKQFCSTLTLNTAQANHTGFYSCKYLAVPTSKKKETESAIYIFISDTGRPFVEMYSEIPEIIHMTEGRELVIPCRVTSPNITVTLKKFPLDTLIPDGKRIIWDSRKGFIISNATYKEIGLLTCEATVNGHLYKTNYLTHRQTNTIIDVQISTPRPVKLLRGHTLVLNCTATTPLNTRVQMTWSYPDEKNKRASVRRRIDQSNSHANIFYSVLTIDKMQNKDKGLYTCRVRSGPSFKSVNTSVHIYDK
Sequence of KDR receptor on HUVEC cells (P35968 20-1356): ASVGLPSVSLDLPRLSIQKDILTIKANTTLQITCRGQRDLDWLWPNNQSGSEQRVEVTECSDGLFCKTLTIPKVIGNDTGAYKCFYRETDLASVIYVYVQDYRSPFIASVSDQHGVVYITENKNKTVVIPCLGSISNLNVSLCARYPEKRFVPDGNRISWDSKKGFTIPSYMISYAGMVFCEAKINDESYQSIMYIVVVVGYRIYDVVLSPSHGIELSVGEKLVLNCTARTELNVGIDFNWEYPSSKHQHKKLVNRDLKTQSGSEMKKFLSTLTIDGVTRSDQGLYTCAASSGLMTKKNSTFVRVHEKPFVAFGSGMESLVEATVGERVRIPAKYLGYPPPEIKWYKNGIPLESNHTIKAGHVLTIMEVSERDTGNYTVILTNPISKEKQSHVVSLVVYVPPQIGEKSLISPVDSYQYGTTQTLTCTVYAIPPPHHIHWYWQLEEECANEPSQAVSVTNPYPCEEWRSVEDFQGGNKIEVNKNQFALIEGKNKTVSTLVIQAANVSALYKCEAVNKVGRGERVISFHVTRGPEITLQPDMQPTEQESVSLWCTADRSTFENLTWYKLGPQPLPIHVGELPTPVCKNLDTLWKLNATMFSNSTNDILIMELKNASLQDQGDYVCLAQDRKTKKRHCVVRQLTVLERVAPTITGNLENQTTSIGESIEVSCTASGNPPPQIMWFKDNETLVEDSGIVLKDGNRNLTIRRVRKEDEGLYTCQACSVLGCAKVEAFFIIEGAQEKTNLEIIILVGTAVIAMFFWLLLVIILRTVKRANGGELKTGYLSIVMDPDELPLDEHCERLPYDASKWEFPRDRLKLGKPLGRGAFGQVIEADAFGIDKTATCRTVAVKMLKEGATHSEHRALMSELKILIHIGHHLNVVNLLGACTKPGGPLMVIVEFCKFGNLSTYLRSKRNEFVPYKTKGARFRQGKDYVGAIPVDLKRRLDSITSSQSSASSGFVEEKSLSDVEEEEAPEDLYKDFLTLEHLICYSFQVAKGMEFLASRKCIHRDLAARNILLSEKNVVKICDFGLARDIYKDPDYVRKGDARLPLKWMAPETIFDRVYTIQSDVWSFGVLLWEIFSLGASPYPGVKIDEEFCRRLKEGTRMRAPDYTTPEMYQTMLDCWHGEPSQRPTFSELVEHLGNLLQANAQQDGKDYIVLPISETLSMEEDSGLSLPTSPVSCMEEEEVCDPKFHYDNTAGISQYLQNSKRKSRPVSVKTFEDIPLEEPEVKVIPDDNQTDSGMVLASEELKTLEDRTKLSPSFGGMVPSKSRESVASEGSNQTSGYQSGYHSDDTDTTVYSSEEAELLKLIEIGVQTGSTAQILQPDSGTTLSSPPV

B1: Flt-sel (I43A/I46A/Q79A/I83A, 1-109 short form) (ligand, human, UniProt P15692-4 27-135, looked up)
chain: APMAEGGGQNHHEVVKFMDVYQRSYCHPIETLVDIFQEYPDEAEYAFKPSCVPLMRCGGCCNDEGLECVPTEESNITMAIMRAKPHQGQHIGEMSFLQHNKCECRPKKD
notes: also called Flt-1-sel; Flt-1 selective variant
fold reduced KDR-binding affinity (against native VEGF (8-109)) [1]: ≥ 470 fold

B2: LK-VRB-1s* (ligand, human, UniProt P15692-4 27-135, looked up)
chain: B1 chain with M18E, Y21L, Q22R, Y25S, A43I, A46I, A79Q, A83I
relative binding affinity (ratio to native VEGF 165) [2]: 20 ratio
relative binding affinity (ratio to native VEGF 165) [3]: 14000 ratio
Relative Binding Affinity, KDR Receptor: ratio to native VEGF (8–109) (KDR receptor): 1 nM/1
relative binding affinity (ratio to native VEGF (8-109)) (Flt-IgG): 6000 ratio
relative binding affinity (ratio to native VEGF (8-109)) (KDR (1-3)): 1 ratio
Relative Binding Affinity, FLT-1 Receptor (RIA) (Flt-1 receptor): 14,000
Phosphorylation-Inducing Activity (KIRA assay) [4]: 0.5 ratio to native VEGF (8-109)
Endothelial Cell Proliferation Activity (HUVEC, 3H-thymidine) [5]: 0.2 ratio to native VEGF (8-109)

B3: Flt-1 selective VEGF variant: Flt-1 selective variant comprising a full length 165 sequence with I43A/I46A/Q79A/I83A (protein)
chain: B1 chain
promotion of HUVEC cell migration (HUVEC cells): unable to increase cell migration over background levels
induction of corneal angiogenesis (corneal angiogenesis): unable to stimulate angiogenesis over control levels
PLC-gamma phosphorylation (PLC-gamma in HUVEC cells): did not increase PLC-gamma phosphorylation over background levels
phosphorylation of ERK1 and ERK2 [6]: barely detectable phosphorylation of ERK2

B4: PlGF: VEGF-related molecule that binds Flt-1 but not KDR (R & D Systems) (protein)
chain: AVPPQQWALSAGNGSSEVEVVPFQEVWGRSYCRALERLVDVVSEYPSEVEHMFSPSCVSLLRCTGCCGDENLHCVPVETANVTMQLLKIRSGDRPSYVELTFSQHVRCECRPLREKMKPERCGDAVPRR
induction of corneal angiogenesis (corneal angiogenesis): only a marginal response
